In this series the target is CHD7 full length WT (UniProt Q9P2D1). The series can be described thus: single-molecule PIFE/smFRET.
Chain of UniProt Q9P2D1 (Q9P2D1 whole entry): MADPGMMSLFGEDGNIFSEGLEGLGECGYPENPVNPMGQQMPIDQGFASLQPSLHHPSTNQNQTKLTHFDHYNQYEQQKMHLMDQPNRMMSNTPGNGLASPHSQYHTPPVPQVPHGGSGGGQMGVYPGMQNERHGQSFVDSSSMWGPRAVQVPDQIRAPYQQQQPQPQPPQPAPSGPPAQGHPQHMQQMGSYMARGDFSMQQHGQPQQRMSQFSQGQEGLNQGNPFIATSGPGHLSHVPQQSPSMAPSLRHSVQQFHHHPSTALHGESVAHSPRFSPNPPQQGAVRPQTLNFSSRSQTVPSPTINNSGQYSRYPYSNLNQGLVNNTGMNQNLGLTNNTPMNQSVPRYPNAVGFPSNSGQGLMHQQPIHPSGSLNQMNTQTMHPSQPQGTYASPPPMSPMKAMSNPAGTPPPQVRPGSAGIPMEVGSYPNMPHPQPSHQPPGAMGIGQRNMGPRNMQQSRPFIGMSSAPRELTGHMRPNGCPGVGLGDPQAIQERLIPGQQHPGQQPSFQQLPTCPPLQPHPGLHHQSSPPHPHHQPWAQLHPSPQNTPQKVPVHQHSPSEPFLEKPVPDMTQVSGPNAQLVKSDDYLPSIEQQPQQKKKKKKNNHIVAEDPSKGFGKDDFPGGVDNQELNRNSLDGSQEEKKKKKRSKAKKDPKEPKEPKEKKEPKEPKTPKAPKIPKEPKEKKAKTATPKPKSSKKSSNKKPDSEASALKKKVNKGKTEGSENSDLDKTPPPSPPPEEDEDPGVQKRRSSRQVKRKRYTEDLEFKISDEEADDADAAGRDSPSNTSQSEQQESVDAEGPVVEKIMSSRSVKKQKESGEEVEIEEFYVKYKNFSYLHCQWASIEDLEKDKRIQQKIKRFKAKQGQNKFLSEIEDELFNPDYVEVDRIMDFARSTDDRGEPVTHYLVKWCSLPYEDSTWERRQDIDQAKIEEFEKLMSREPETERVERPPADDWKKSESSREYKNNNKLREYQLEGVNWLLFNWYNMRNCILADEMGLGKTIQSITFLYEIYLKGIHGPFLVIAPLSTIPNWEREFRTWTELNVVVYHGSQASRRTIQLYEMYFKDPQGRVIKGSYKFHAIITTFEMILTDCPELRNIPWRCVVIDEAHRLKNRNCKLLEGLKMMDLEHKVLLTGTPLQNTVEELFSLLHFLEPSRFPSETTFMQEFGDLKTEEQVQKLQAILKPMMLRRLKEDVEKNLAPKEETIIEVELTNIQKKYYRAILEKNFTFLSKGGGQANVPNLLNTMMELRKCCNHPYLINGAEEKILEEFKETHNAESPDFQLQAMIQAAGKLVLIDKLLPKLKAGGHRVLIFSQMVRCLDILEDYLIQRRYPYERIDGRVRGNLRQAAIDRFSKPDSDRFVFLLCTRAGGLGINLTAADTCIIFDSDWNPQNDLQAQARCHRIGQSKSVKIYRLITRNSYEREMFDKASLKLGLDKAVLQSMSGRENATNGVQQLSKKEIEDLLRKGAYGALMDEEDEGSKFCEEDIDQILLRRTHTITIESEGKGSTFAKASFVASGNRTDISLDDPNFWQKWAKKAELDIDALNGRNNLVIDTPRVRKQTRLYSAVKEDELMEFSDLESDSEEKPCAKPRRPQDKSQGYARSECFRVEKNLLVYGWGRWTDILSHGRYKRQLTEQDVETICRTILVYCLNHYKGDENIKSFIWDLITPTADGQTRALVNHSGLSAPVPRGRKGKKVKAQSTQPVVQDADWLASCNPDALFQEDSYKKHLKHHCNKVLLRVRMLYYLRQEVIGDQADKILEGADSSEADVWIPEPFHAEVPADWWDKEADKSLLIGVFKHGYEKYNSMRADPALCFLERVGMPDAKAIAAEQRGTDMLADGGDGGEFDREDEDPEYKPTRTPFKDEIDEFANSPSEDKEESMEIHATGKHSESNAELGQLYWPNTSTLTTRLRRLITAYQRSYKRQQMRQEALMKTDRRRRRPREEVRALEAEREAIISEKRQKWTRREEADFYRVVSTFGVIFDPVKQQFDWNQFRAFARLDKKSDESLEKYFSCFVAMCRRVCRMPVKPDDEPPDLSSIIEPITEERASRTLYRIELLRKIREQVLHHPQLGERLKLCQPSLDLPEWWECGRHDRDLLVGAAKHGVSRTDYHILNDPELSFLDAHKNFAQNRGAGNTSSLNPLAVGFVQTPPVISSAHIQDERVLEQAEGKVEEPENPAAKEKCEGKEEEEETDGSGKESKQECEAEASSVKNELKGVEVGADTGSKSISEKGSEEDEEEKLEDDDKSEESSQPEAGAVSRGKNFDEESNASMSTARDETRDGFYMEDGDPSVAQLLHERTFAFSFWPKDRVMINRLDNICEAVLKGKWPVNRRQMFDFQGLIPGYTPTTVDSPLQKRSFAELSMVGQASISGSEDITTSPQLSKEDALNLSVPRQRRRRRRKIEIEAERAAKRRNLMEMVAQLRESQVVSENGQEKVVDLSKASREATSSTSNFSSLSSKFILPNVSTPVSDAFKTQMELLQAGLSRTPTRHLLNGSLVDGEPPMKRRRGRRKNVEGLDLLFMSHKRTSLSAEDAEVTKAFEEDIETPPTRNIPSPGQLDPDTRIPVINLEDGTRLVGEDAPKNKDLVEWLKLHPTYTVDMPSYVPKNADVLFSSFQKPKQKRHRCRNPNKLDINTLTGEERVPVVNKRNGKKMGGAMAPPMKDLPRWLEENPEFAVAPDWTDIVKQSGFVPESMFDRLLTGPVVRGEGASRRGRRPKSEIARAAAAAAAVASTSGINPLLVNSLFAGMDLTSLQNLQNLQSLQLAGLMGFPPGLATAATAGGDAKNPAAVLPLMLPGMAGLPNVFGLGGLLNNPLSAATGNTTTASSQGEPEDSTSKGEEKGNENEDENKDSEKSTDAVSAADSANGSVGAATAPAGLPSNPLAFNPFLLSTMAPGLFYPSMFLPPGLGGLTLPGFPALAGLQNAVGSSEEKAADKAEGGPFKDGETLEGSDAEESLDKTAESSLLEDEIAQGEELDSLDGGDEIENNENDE

Consider “GCCCTGGAGAATCCCGGTCTGCAGGCCGCTCAATTGGTCGTAGACAGCTCTAGCACCGCTTAAACGCACGTACGCGCTGTCCCCCGCGTTTTAACCGCCAAGGGGATTACTCCCTAGTCTCCAGGCACGTGTCAGATATATACATCCTGTGCATGTATTGAACAGCGACCTTGCCGGTGCCAGTCGGATAGTGTTCCGAGCTCCCACTCTAGAGGATCCCCGGGTACC (double strand) [smFRET 601 nucleosome, 3 bp exit linker, 78 bp entry linker]”, for which the binding signal (% of nucleosomes with PIFE) stood at 76.5.
